The values below are quoted from earlier work in paper PMC3496038.

In general, Kd refers to a measure of binding affinity in units of concentration.

Series [1] has as its target GluA1 NTD (Rattus norvegicus) (UniProt P19490). The series can be described thus: analytical ultracentrifugation.
The target in series [2] is GluA3 NTD (Rattus norvegicus) (UniProt P19492). The series is described as follows: analytical ultracentrifugation.

Regarding GluA1 NTD (from UniProt P19490), the Kd in series [1] was 100 nM.

In the case of GluA3 NTD (from UniProt P19492), in series [2], the Kd is 1000 nM.
